# T1: IKKα-His (UniProt O15111)
# T1 sequence: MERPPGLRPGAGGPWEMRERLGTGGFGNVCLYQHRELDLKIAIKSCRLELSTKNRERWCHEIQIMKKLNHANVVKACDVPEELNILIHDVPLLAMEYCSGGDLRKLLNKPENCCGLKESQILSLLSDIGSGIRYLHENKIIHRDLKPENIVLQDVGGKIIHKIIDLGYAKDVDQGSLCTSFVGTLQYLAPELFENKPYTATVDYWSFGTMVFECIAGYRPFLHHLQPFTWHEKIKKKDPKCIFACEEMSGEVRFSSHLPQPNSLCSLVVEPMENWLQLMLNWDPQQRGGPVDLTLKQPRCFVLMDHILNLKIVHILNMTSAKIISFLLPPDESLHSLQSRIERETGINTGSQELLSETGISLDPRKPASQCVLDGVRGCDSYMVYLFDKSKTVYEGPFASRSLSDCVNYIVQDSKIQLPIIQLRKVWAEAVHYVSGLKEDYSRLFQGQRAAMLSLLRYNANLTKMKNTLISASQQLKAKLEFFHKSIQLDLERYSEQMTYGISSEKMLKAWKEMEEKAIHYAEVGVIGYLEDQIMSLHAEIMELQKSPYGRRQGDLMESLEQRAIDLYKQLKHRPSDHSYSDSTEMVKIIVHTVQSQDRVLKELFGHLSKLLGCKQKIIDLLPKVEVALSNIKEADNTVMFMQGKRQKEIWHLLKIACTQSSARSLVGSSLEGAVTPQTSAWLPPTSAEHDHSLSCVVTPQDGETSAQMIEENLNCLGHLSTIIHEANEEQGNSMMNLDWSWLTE
# T2: MBP-IKKα-6His (UniProt O15111 1-745)
# T2 sequence: T1 sequence
# B1: 5'-biotin A+B DRAIC RNA (structured_RNA)
# RNA: UUGGAAUAACUUGCAGUGCCAGCAACUUGUUCACAA
# Experiments:
# IKKα-His [1] = molecular target: T1, IKKα-His; assay: pull-down (in vitro RIP-qPCR); conditions: SPR: 10 mM HEPES pH 7.4, 150 mM NaCl, 3 mM EDTA, 0.05% P20, 25 °C; pull-down: 25 mM HEPES pH 7.5, 150 mM NaCl, 0.05% NP-40, 10% glycerol, RT; EMSA: LightShift …
# IKKα-His [2] = molecular target: T1, IKKα-His; assay: SPR; conditions: SPR: 10 mM HEPES pH 7.4, 150 mM NaCl, 3 mM EDTA, 0.05% P20, 25 °C; pull-down: 25 mM HEPES pH 7.5, 150 mM NaCl, 0.05% NP-40, 10% glycerol, RT; EMSA: LightShift …
# GST-NEMO = GST-NEMO (UniProt Q9Y6K9 1-419); assay: SPR; biotin RNA immobilized; SPR: 10 mM HEPES pH 7.4, 150 mM NaCl, 3 mM EDTA, 0.05% P20, 25 °C; pull-down: 25 mM HEPES pH 7.5, 150 mM NaCl, 0.05% NP-40, 10% glycerol, RT; EMSA: LightShift kit, 22 °C, 25 min; conditions: protein: recombinant; tags: GST; chain copies: 2; label: 5' biotin; hairpin
# Chain of GST-NEMO (Q9Y6K9 whole entry): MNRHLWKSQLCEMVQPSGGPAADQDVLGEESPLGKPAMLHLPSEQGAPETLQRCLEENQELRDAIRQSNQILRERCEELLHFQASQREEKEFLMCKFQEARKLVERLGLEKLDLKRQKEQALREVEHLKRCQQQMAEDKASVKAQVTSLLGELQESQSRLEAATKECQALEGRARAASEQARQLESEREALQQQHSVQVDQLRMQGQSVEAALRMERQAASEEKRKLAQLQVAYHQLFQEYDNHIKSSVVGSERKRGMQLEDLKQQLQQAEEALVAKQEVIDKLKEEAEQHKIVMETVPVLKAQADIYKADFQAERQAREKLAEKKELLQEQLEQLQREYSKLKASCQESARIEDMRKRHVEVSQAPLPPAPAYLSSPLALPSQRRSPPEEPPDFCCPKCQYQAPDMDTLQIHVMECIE
# MBP-IKKα-6His = molecular target: T2, MBP-IKKα-6His; assay: SPR; biotin RNA immobilized on NeutrAvidin chip, protein analyte; text gives 6.09 ± 1.08 nM; SPR: 10 mM HEPES pH 7.4, 150 mM NaCl, 3 mM EDTA, 0.05% P20, 25 °C; pull-down: 25 mM HEPES pH 7.5, 150 mM NaCl, 0.05% NP-40, 10% glycerol, RT; EMSA: LightShift kit, 22 °C, 25 min; conditions: protein: recombinant; tags: N-term MBP (pMAL-c5X), C-term His6; chain copies: 2; label: 5' biotin; hairpin
molecule,measurement,setting,value
GGGAGAUUGGAAUAACUUGCAGUGUCUUGCAGUAUUGUGAAACCAGCAACUUGUUCACAAUUCUUCUGAAUUUCUUGGGAAAUUUGAAGUGGAGUACCUGUACCAACAUGAAAUGACACGAAUUUAAGUGACGCUCAACAACGAAAAGCAAAAAGAACCAAAGAGGAAGCAACUGAAACAACAUCUGGAUGUAUUUAAAAAUAUACAAUGCCUCCAAAAUCAGGUGUCAUUAAUGAAAAUUCUGAAGAAAUG [DRAIC 705-950],binding,IKKα-His [1],binds
UUGGAAUAACUUGCAGUGCCAGCAACUUGUUCACAA [A+B DRAIC RNA],Kd,IKKα-His [2],0.541 nM
B1,binding result,GST-NEMO,no binding
same,Kd,MBP-IKKα-6His,6.29 ± 1.08 nM

# From article PMC12205651, “A 36-base hairpin within lncRNA DRAIC, which is modulated by alternative splicing, interacts with the IKKα coiled-coil domain and inhibits NF-κB and tumor cell phenotypes”
